{
  "source": "paper PMC7039684",
  "about": "“Control of cell death/survival balance by the MET dependence receptor” (eLife, 2020)",
  "experiment_in_all_cases": "FRET or BRET; FLIM-FRET by TCSPC in live co-transfected HEK293T cells, 37°C, L-15 medium; lifetime of the mT2 donor against donor alone; SYFP2 or EYFP fusion as acceptor",
  "key": {"BAK-mTurquoise2": {"target": "BAK-mTurquoise2 (UniProt Q16611)"}, "BAK-SYFP2": {"target": "T1, BAK-SYFP2 (UniProt Q16611 1-211)", "T1 construct": "BAK, pro-apoptotic BCL2 family protein; amplified by PCR from Flag-tagged BAK; Cloned with EcoRI and XhoI into the SYFP2 plasmid; also called SYFP2-BAK; source: HEK293T or IHH cells, transfected, in live cells", "T1 sequence (looked up)": "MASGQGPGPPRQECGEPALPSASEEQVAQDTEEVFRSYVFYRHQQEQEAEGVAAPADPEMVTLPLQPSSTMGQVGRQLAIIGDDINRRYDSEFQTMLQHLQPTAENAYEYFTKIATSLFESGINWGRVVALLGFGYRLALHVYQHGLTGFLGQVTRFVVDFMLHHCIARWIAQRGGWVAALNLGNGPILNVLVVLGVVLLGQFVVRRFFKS", "settings": "partners not purified"}, "BAX-SYFP2": {"target": "T2, BAX-SYFP2 (UniProt Q07812 1-192)", "T2 construct": "BAX, pro-apoptotic BCL2 family protein; amplified by PCR from Flag-tagged BAX; Cloned with EcoRI and XhoI into the SYFP2 plasmid; also called SYFP2-tagged BAX; source: HEK293T, transfected, in live cells", "T2 sequence (Q07812 whole entry)": "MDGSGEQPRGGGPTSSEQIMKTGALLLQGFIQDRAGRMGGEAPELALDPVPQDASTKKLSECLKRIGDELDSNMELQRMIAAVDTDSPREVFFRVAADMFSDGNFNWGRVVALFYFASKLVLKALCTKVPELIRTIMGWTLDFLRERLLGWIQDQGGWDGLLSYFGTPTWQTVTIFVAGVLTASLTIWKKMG", "settings": "partners not purified"}, "BAX-mTurquoise2": {"target": "T3, BAX-mTurquoise2 (UniProt Q07812 1-192)", "T3 construct": "BAX, pro-apoptotic BCL2 family protein; amplified by PCR from Flag-tagged BAX; Cloned with EcoRI and XhoI into the mTurquoise2 plasmid; also called BAX-mT2; mT2-fused BAX; source: HEK293T, transfected, in live cells", "T3 sequence (Q07812 whole entry, the tested form may be a part)": "as the sequence (Q07812 whole entry) above", "settings": "partners not purified"}},
  "data": [
    {"molecule": "free SYFP2 (Super Yellow Fluorescent Protein 2)", "values": [
      {"measurement": "mean FRET efficiency", "setting": "BAK-mTurquoise2", "value": "< 0.1", "unit": "%"}
    ]},
    {"molecule": "p40MET-mTurquoise2 (domain or fragment, mouse, UniProt P16056 1001-1374, looked up, limits worked out from the stated caspase sites; also called p40MET-mT2; mT2-p40MET; source: HEK293T or IHH cells, transfected, in live cells) YRATFPEDQFPNSSQNGACRQVQYPLTDLSPILTSGDSDISSPLLQNTVHIDLSALNPELVQAVQHVVIGPSSLIVHFNEVIGRGHFGCVYHGTLLDNDGKKIHCAVKSLNRITDIEEVSQFLTEGIIMKDFSHPNVLSLLGICLRSEGSPLVVLPYMKHGDLRNFIRNETHNPTVKDLIGFGLQVAKGMKYLASKKFVHRDLAARNCMLDEKFTVKVADFGLARDMYDKEYYSVHNKTGAKLPVKWMALESLQTQKFTTKSDVWSFGVLLWELMTRGAPPYPDVNTFDITIYLLQGRRLLQPEYCPDALYEVMLKCWHPKAEMRPSFSELVSRISSIFSTFIGEHYVHVNATYVNVKCVAPYPSLLPSQDNID", "values": [
      {"measurement": "mean FRET efficiency", "setting": "BAK-SYFP2", "value": 4, "unit": "%"},
      {"measurement": "mean FRET efficiency", "setting": "BAX-SYFP2", "value": 2.5, "unit": "%"}
    ]},
    {"molecule": "p40MET-SYFP2 (domain or fragment, mouse, UniProt P16056 1001-1374, looked up, limits worked out from the stated caspase sites; also called SYFP2-p40MET; source: HEK293T or IHH cells, transfected, in live cells) YRATFPEDQFPNSSQNGACRQVQYPLTDLSPILTSGDSDISSPLLQNTVHIDLSALNPELVQAVQHVVIGPSSLIVHFNEVIGRGHFGCVYHGTLLDNDGKKIHCAVKSLNRITDIEEVSQFLTEGIIMKDFSHPNVLSLLGICLRSEGSPLVVLPYMKHGDLRNFIRNETHNPTVKDLIGFGLQVAKGMKYLASKKFVHRDLAARNCMLDEKFTVKVADFGLARDMYDKEYYSVHNKTGAKLPVKWMALESLQTQKFTTKSDVWSFGVLLWELMTRGAPPYPDVNTFDITIYLLQGRRLLQPEYCPDALYEVMLKCWHPKAEMRPSFSELVSRISSIFSTFIGEHYVHVNATYVNVKCVAPYPSLLPSQDNID", "values": [
      {"measurement": "mean FRET efficiency", "setting": "BAX-mTurquoise2", "value": 4.3, "unit": "%"}
    ]}
  ]
}
